Ends that are not written are not given here.

The target in test [1] is affinity purified rabbit anti-mature, folded, bioactive hepcidin antibody (KST4). Put plainly: competition ELISA with synthetic hepcidin as competitor. In general terms: ELISA stands for enzyme-linked immunosorbent assay.
The target in test [2] is polyclonal anti-hepcidin rabbit sera (unpurified serum, source rabbit not named). Described as above.
The target in test [3] is Protein A affinity purified antibodies (anti-hepcidin rabbit sera, source serum not named). The description is as above.
Test [4] concerns the target Protein A affinity purified KST4. Put plainly: competitive inhibition ELISA, Protein A purified KST4 at 1:5000 (FIG. 7B). The method, then:
We collected serum from each of three immunized rabbits (KST3, KST4, KST5). KST3 and 4 are sera from rabbits immunized with hepcidin-KLH conjugates produced using EDC chemistry, while KST5 is sera from conjugates produced using DSS chemistry (FIG. 7A). […] Additional validation of the anti-mature, folded, bioactive hepcidin antibodies described above was performed and their utility in competitive ELISA examined in the presence of varying dilutions of bass serum (FIG. 8 A-C). Note increasing inhibition of signal with increasing amounts of synthetic hepcidin added to tracer. Note the effects of serum on competitive ELISA standard curve (FIG. 8 C) generated with data from (FIG. 8 B) between 10-100 ngs of mature, folded, bioactive hepcidin. […] FIG. 9 is an example of a routine standard curve where hepcidin competitor concentrations are expressed as ng/ml, rather than total ngs added to the competition.

B1: synthetic, mature, refolded, bioactive bass hepcidin (peptide)
peptide: GCRFCCNCCPNMSGCGVCCRF-OH
modifications: disulfide (positions not given here)
notes: also called synthetic hepcidin
Consider B1, for which the entries for the “percent of signal competed away” value in test [1], in test [2] and in test [3] were > 90%, 65% and ~80%, respectively. For the same molecule, in test [4], the IC50 – broadly, the concentration that gives 50% inhibition – was ~2.5 ng/mL.

For the origin of these results see patent publication US20090215095A1 (INTRINSIC LIFESCIENCES, published 2009).
